Assay results: patent US12180485B2, “Repressible control of gene expression” (TRUSTEES OF BOSTON UNIVERSITY, priority 2020, dated 2024)
Entries after “also recorded” stand apart in the source; their conditions may differ.

Legend:
mCherry = mCherry knockdown by inducible split RfxCas13d (ON switch) in transfected HEK 293 FT cells, flow cytometry; format: cell-based; conditions: for knockdown with assistance of gRNA: mCherry; for performance after NES/NLS compartmentalization: GIB induced split pairs, NES on one moiety, NLS on the other; for knockdown across the various CID systems: split pairs coupled with CID domains, with inducer
[1] = test system: mCherry expression in HEK293 FT cells; experiment: Inducible split RfxCas13d (GIB, RAP, ABA, Dano, GRZ CID domains; NES/NLS variants) mCherry knockdown, leakiness and inducibility; format: cell-based; conditions: inducible polypeptide systems of Tables 18-22
In short: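 mCherry knockdown in HEK293 FT cells by split RfxCas13d halves fused to GIB, RAP, ABA, Dano or GRZ dimerization domains, scored with and without inducer. Leakiness score and induced activity were derived per split site; NES/NLS compartmentalization and reversed CID orientation were also tested.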

Molecule	knockdown with assistance of gRNA (mCherry)	performance after NES/NLS compartmentalization (mCherry)	knockdown across the various CID systems (mCherry)	other results
384/385: RfxCas13d split pair at 384/385 (protein) chain 1: IEKKKSFAKGMGVKSTLVSGSKVYMTTFAEGSDARLEKIVEGDSIRSVNEGEAFSAEMADKNAGYKIGNAKFSHPKGYAVVANNPLYTGPVQQDMLGLKETLEKRYFGESADGNDNICIQVIHNILDIEKILAEYITNAAYAVNNISGLDKDIIGFGKFSTVYTYDEFKDPEHHRAAFNNNDKLINAIKAQYDEFDNFLDNPRLGYFGQAFFSKEGRNYIINYGNECYDILALLSGLRHWVVHNNEEESRISRTWLYNLDKNLDNEYISTLNYLYDRITNELTNSFSKNSAANVNYIAETLGINPAEFAEQYFRFSIMKEQKNLGFNITKLREVMLDRKDMSEIRKNHKVFDSIRTKVYTMMDFVIYRYYIEEDAKVAAANKSL chain 2: PDNEKSLSEKDIFVINLRGSFNDDQKDALYYDEANRIWRKLENIMHNIKEFRGNKTREYKKKDAPRLPRILPAGRDVSAFSKLMYALTMFLDGKEINDLLTTLINKFDNIQSFLKVMPLIGVNAKFVEEYAFFKDSAKIADELRLIKSFARMGEPIADARRAMYIDAIRILGTNLSYDELKALADTFSLDENGNKLKKGKHGMRNFIINNVISNKRFHYLIRYGDPAHLHEIAKNEAVVKFVLGRIADIQKKQGQNGKNQIDRYYETCIGKDKGKSVSEKVDALTKIITGMNYDQFDKKRSVIEDTGRENAEREKFKKIISLYLTVIYHILKNIVNINARYVIGFHCVERDAQLYKEKGYDINLKKLEEKGFSSVTKLCAGIDETAPDKRKDVEKEMAERAKESIDSLESANPKLYANYIKYSDEKKAEEFTRQINREKAKTALNAYLRNTKWNVIIREDLLRIDNKTCTLFRNKAVHLEVARYVHAYINDIAEVNSYFQLYHYIMQRIIMNERYEKSSGKVSEYFDAVNDEKKYNDRLLKLLCVPFGYCIPRFKNLSIEALFDRNEAAKFDKEKKKVSGNS	relatively efficient knockdown	–	–	–
177/178: RfxCas13d split pair at 177/178 (protein) chain 1: IEKKKSFAKGMGVKSTLVSGSKVYMTTFAEGSDARLEKIVEGDSIRSVNEGEAFSAEMADKNAGYKIGNAKFSHPKGYAVVANNPLYTGPVQQDMLGLKETLEKRYFGESADGNDNICIQVIHNILDIEKILAEYITNAAYAVNNISGLDKDIIGFGKFSTVYTYDEFKDPEHHRAA chain 2: FNNNDKLINAIKAQYDEFDNFLDNPRLGYFGQAFFSKEGRNYIINYGNECYDILALLSGLRHWVVHNNEEESRISRTWLYNLDKNLDNEYISTLNYLYDRITNELTNSFSKNSAANVNYIAETLGINPAEFAEQYFRFSIMKEQKNLGFNITKLREVMLDRKDMSEIRKNHKVFDSIRTKVYTMMDFVIYRYYIEEDAKVAAANKSLPDNEKSLSEKDIFVINLRGSFNDDQKDALYYDEANRIWRKLENIMHNIKEFRGNKTREYKKKDAPRLPRILPAGRDVSAFSKLMYALTMFLDGKEINDLLTTLINKFDNIQSFLKVMPLIGVNAKFVEEYAFFKDSAKIADELRLIKSFARMGEPIADARRAMYIDAIRILGTNLSYDELKALADTFSLDENGNKLKKGKHGMRNFIINNVISNKRFHYLIRYGDPAHLHEIAKNEAVVKFVLGRIADIQKKQGQNGKNQIDRYYETCIGKDKGKSVSEKVDALTKIITGMNYDQFDKKRSVIEDTGRENAEREKFKKIISLYLTVIYHILKNIVNINARYVIGFHCVERDAQLYKEKGYDINLKKLEEKGFSSVTKLCAGIDETAPDKRKDVEKEMAERAKESIDSLESANPKLYANYIKYSDEKKAEEFTRQINREKAKTALNAYLRNTKWNVIIREDLLRIDNKTCTLFRNKAVHLEVARYVHAYINDIAEVNSYFQLYHYIMQRIIMNERYEKSSGKVSEYFDAVNDEKKYNDRLLKLLCVPFGYCIPRFKNLSIEALFDRNEAAKFDKEKKKVSGNS	relatively efficient knockdown	–	–	–
SEQ ID NO: 800: inducible system polypeptide, probably Table 20 (GID-GAI) (protein) MAPKKKRKVGIHGVPAAKRDHHHHHHQDKKTMMMNEEDDGNGMDELLAVLGYKVRSSEMADVAQKLEQLEVMMSNVQEDDLSQLATETVHYNPAELYTWLDSMLTDLNSGGSGSGSSGGSGTALADTFSLDENGNKLKKGKHGMRNFIINNVISNKRFHYLIRYGDPAHLHEIAKNEAVVKFVLGRIADIQKKQGQNGKNQIDRYYETCIGKDKGKSVSEKVDALTKIITGMNYDQFDKKRSVIEDTGRENAEREKFKKIISLYLTVIYHILKNIVNINARYVIGFHCVERDAQLYKEKGYDINLKKLEEKGFSSVTKLCAGIDETAPDKRKDVEKEMAERAKESIDSLESANPKLYANYIKYSDEKKAEEFTRQINREKAKTALNAYLRNTKWNVIIREDLLRIDNKTCTLFRNKAVHLEVARYVHAYINDIAEVNSYFQLYHYIMQRIIMNERYEKSSGKVSEYFDAVNDEKKYNDRLLKLLCVPFGYCIPRFKNLSIEALFDRNEAAKFDKEKKKVSGNSSGSGPKKKRKV	–	–	–	performance in the tested conditions [1]: highest performance
559/560: RfxCas13d split between residues 559/560; N and C fragments plain or fused to CID domains (protein) chain 1: IEKKKSFAKGMGVKSTLVSGSKVYMTTFAEGSDARLEKIVEGDSIRSVNEGEAFSAEMADKNAGYKIGNAKFSHPKGYAVVANNPLYTGPVQQDMLGLKETLEKRYFGESADGNDNICIQVIHNILDIEKILAEYITNAAYAVNNISGLDKDIIGFGKFSTVYTYDEFKDPEHHRAAFNNNDKLINAIKAQYDEFDNFLDNPRLGYFGQAFFSKEGRNYIINYGNECYDILALLSGLRHWVVHNNEEESRISRTWLYNLDKNLDNEYISTLNYLYDRITNELTNSFSKNSAANVNYIAETLGINPAEFAEQYFRFSIMKEQKNLGFNITKLREVMLDRKDMSEIRKNHKVFDSIRTKVYTMMDFVIYRYYIEEDAKVAAANKSLPDNEKSLSEKDIFVINLRGSFNDDQKDALYYDEANRIWRKLENIMHNIKEFRGNKTREYKKKDAPRLPRILPAGRDVSAFSKLMYALTMFLDGKEINDLLTTLINKFDNIQSFLKVMPLIGVNAKFVEEYAFFKDSAKIADELRLIKSFARMGEPIADARRAMYIDAIRILGTNL chain 2: SYDELKALADTFSLDENGNKLKKGKHGMRNFIINNVISNKRFHYLIRYGDPAHLHEIAKNEAVVKFVLGRIADIQKKQGQNGKNQIDRYYETCIGKDKGKSVSEKVDALTKIITGMNYDQFDKKRSVIEDTGRENAEREKFKKIISLYLTVIYHILKNIVNINARYVIGFHCVERDAQLYKEKGYDINLKKLEEKGFSSVTKLCAGIDETAPDKRKDVEKEMAERAKESIDSLESANPKLYANYIKYSDEKKAEEFTRQINREKAKTALNAYLRNTKWNVIIREDLLRIDNKTCTLFRNKAVHLEVARYVHAYINDIAEVNSYFQLYHYIMQRIIMNERYEKSSGKVSEYFDAVNDEKKYNDRLLKLLCVPFGYCIPRFKNLSIEALFDRNEAAKFDKEKKKVSGNS	–	high inducibility with minimal leakiness	efficient knockdown; also recorded: consistently strong drug-induced knockdown	induced knockdown (mCherry; Danoprevir-inducible, 2 NESs on N terminal moiety and 2 NLSs on C terminal moiety): over 60%; performance of reversed CID orientation versus original orientation (mCherry; GIB: N ss-GAI/GID-ss C, ABA: N ss-PYL/ABI-ss C): stronger inducibility and weaker leakiness; target knockdown efficiency (mCherry; split pair): more than 80%
655/656: RfxCas13d split pair at 655/656, plain or fused to CID domains (protein) chain 1: IEKKKSFAKGMGVKSTLVSGSKVYMTTFAEGSDARLEKIVEGDSIRSVNEGEAFSAEMADKNAGYKIGNAKFSHPKGYAVVANNPLYTGPVQQDMLGLKETLEKRYFGESADGNDNICIQVIHNILDIEKILAEYITNAAYAVNNISGLDKDIIGFGKFSTVYTYDEFKDPEHHRAAFNNNDKLINAIKAQYDEFDNFLDNPRLGYFGQAFFSKEGRNYIINYGNECYDILALLSGLRHWVVHNNEEESRISRTWLYNLDKNLDNEYISTLNYLYDRITNELTNSFSKNSAANVNYIAETLGINPAEFAEQYFRFSIMKEQKNLGFNITKLREVMLDRKDMSEIRKNHKVFDSIRTKVYTMMDFVIYRYYIEEDAKVAAANKSLPDNEKSLSEKDIFVINLRGSFNDDQKDALYYDEANRIWRKLENIMHNIKEFRGNKTREYKKKDAPRLPRILPAGRDVSAFSKLMYALTMFLDGKEINDLLTTLINKFDNIQSFLKVMPLIGVNAKFVEEYAFFKDSAKIADELRLIKSFARMGEPIADARRAMYIDAIRILGTNLSYDELKALADTFSLDENGNKLKKGKHGMRNFIINNVISNKRFHYLIRYGDPAHLHEIAKNEAVVKFVLGRIADIQKKQGQNGKNQIDRYYETCIGK chain 2: DKGKSVSEKVDALTKIITGMNYDQFDKKRSVIEDTGRENAEREKFKKIISLYLTVIYHILKNIVNINARYVIGFHCVERDAQLYKEKGYDINLKKLEEKGFSSVTKLCAGIDETAPDKRKDVEKEMAERAKESIDSLESANPKLYANYIKYSDEKKAEEFTRQINREKAKTALNAYLRNTKWNVIIREDLLRIDNKTCTLFRNKAVHLEVARYVHAYINDIAEVNSYFQLYHYIMQRIIMNERYEKSSGKVSEYFDAVNDEKKYNDRLLKLLCVPFGYCIPRFKNLSIEALFDRNEAAKFDKEKKKVSGNS	–	high inducibility with minimal leakiness	efficient knockdown; also recorded: consistently strong drug-induced knockdown	–
